Measured values published in publication PMC2756588.

T1: Lsb4, P32793
T1 sequence (P32793 402-468, looked up): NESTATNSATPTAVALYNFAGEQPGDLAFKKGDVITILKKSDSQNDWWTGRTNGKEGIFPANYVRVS

T2: Bbc1, P47068
T2 sequence (P47068 1-78, looked up): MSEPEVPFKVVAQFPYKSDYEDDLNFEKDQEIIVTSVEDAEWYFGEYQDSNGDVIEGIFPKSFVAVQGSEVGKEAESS

T3: Nbp2, Q12163
T3 sequence (Q12163 103-180, looked up): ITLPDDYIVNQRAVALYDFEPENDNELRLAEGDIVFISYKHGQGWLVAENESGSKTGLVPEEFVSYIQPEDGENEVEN

T4: Bzz1-1, P38822
T4 sequence (P38822 478-572, looked up): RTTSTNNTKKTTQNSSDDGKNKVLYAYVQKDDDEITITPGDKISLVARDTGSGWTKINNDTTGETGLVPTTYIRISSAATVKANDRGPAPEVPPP

T5: Cdc25, P04821
T5 sequence (P04821 50-136, looked up): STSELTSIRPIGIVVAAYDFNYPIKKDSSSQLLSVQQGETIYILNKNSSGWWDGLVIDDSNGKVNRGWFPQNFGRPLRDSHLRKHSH

T6: Hse1, P38753
T6 sequence (P38753 208-285, looked up): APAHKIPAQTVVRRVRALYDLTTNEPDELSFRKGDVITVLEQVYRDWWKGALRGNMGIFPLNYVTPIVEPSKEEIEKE

T7: Cyk3, Q07533
T7 sequence (Q07533 1-83, looked up): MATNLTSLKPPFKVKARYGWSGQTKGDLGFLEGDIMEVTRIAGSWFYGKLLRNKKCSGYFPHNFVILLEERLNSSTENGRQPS

T8: Boi1, P38041
T8 sequence (P38041 1-86, looked up): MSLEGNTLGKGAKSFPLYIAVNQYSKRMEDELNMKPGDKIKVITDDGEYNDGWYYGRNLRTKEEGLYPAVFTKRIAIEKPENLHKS

T9: Boi2, P39969
T9 sequence (P39969 32-116, looked up): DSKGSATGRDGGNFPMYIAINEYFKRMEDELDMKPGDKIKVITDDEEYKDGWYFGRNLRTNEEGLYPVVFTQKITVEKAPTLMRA

T10: Hof1, Q05080
T10 sequence (Q05080 590-669, looked up): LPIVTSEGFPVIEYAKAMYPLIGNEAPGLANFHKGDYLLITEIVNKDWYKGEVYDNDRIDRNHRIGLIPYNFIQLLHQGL

T11: Myo5, Q04439
T11 sequence (Q04439 1072-1160, looked up): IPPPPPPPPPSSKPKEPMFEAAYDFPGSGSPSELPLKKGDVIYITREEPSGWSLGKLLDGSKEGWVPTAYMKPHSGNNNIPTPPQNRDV

T12: Bud14, P27637
T12 sequence (P27637 247-328, looked up): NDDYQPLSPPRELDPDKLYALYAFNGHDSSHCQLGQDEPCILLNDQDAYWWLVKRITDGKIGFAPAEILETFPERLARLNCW

T13: Sla1-2, P32790
T13 sequence (P32790 60-140, looked up): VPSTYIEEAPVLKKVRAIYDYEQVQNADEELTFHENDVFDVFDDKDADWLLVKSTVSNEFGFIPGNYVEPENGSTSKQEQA

T14: Pex13, P80667
T14 sequence (P80667 295-386, looked up): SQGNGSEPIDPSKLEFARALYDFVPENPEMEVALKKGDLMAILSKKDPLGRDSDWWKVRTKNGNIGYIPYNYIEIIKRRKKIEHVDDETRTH

T15: Sla1-3, P32790
T15 sequence (P32790 344-424, looked up): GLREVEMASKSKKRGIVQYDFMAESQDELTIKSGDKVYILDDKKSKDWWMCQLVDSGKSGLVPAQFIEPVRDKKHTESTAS

T16: Lsb1, P53281
T16 sequence (P53281 45-122, looked up): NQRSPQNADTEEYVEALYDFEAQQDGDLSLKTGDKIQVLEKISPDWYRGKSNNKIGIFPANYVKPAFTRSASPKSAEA

T17: Pin3, Q06449
T17 sequence (Q06449 53-122, looked up): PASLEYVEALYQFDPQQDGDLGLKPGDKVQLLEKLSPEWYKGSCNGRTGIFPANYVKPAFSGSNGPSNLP

T18: Abp1, P15891
T18 sequence (P15891 535-592, looked up): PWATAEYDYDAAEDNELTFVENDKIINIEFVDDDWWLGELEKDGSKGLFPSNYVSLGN

T19: Bzz1-2, P38822
T19 sequence (P38822 568-633, looked up): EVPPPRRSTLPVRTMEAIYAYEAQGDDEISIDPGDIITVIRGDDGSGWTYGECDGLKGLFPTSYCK

T20: Fus1, P11710
T20 sequence (P11710 432-512, looked up): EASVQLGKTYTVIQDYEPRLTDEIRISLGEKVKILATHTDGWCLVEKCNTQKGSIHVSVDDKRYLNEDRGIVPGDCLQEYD

T21: Lsb3, P43603
T21 sequence (P43603 385-451, looked up): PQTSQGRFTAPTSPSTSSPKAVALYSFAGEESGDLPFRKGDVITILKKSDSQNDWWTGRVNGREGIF

B1: unnamed (peptide)
chain: RVRKTHVPASKRPSG
B2: unnamed (peptide)
chain: LSKRLPLRFPEHTSS
B3: unnamed (peptide)
chain: YRRKSIPFAPHQITA
B4: unnamed (peptide)
chain: PSRRDSLSIPRAVDA

What follows are binders tested against T1, Lsb4, P32793 (assay: SPOT array). Settings: median of control spots 397.

Row | SPOT intensity | Binder
1 | 1 | B1
2 | 4 | B2
3 | 2 | B3
4 | 0 | B4

What follows are binders tested against Myo3, P36006 (assay: SPOT array). Settings: median of control spots 468.

Row | SPOT intensity | Binder
5 | 1 | B1
6 | 0 | B2
7 | 0 | B3
8 | 3 | B4

Each binder was assayed against T2, Bbc1, P47068 (assay: SPOT array). Settings: median of control spots 796.

Row | SPOT intensity | Binder
9 | 11 | B1
10 | 2 | B2
11 | 2 | B3
12 | 0 | B4

These binders were tested against T3, Nbp2, Q12163 (assay: SPOT array). Settings: median of control spots 357.

Row | SPOT intensity | Binder
13 | 0 | B1
14 | 2 | B2
15 | 0 | B3
16 | 0 | B4

Each binder was assayed against T4, Bzz1-1, P38822 (assay: SPOT array). Settings: median of control spots 4446.

Row | SPOT intensity | Binder
17 | 0 | B1
18 | 0 | B2
19 | 0 | B3
20 | 0 | B4

What follows are binders tested against T5, Cdc25, P04821 (assay: SPOT array). Settings: median of control spots 969.

Row | SPOT intensity | Binder
21 | 0 | B1
22 | 3 | B2
23 | 2 | B3
24 | 0 | B4

Each binder was assayed against T6, Hse1, P38753 (assay: SPOT array). Settings: median of control spots 1727.

Row | SPOT intensity | Binder
25 | 2 | B1
26 | 101 | B2
27 | 9 | B3
28 | 0 | B4

What follows are binders tested against T7, Cyk3, Q07533 (assay: SPOT array). Settings: median of control spots 1451.

Row | SPOT intensity | Binder
29 | 3 | B1
30 | 0 | B2
31 | 0 | B3
32 | 1 | B4

Each binder was assayed against T8, Boi1, P38041 (assay: SPOT array). Settings: median of control spots 1162.

Row | SPOT intensity | Binder
33 | 1 | B1
34 | 0 | B2
35 | 0 | B3
36 | 0 | B4

Each binder was assayed against Sho1, P40073 (assay: SPOT array). Settings: median of control spots 1148.
Sho1, P40073, sequence (P40073 287-367): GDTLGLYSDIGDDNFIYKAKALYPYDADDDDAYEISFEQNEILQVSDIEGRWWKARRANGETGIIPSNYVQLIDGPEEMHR

Row | SPOT intensity | Binder
37 | 124 | B1
38 | 29 | B2
39 | 17 | B3
40 | 13 | B4

What follows are binders tested against Bem1-1, P29366 (assay: SPOT array). Settings: median of control spots 4282.
Bem1-1, P29366, sequence (P29366 55-141): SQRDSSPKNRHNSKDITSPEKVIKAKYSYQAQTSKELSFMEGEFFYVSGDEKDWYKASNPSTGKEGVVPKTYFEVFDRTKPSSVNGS

Row | SPOT intensity | Binder
41 | 0 | B1
42 | 0 | B2
43 | 0 | B3
44 | 0 | B4

What follows are binders tested against T9, Boi2, P39969 (assay: SPOT array). Settings: median of control spots 1161.

Row | SPOT intensity | Binder
45 | 1 | B1
46 | 0 | B2
47 | 1 | B3
48 | 1 | B4

The binders below were run against Bem1-2, P29366 (assay: SPOT array). Settings: median of control spots 4347.
Bem1-2, P29366, sequence (P29366 139-227): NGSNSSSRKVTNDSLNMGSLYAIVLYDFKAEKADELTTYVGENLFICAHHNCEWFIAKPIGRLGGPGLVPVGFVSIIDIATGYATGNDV

Row | SPOT intensity | Binder
49 | 0 | B1
50 | 4 | B2
51 | 3 | B3
52 | 0 | B4

These binders were tested against T10, Hof1, Q05080 (assay: SPOT array). Settings: median of control spots 4086.

Row | SPOT intensity | Binder
53 | 0 | B1
54 | 25 | B2
55 | 5 | B3
56 | 0 | B4

These binders were tested against T11, Myo5, Q04439 (assay: SPOT array). Settings: median of control spots 471.

Row | SPOT intensity | Binder
57 | 0 | B1
58 | 0 | B2
59 | 0 | B3
60 | 2 | B4

What follows are binders tested against T12, Bud14, P27637 (assay: SPOT array). Settings: median of control spots 956.

Row | SPOT intensity | Binder
61 | 5 | B1
62 | 1 | B2
63 | 0 | B3
64 | 0 | B4

These binders were tested against T13, Sla1-2, P32790 (assay: SPOT array). Settings: median of control spots 712.

Row | SPOT intensity | Binder
65 | 1 | B1
66 | 0 | B2
67 | 0 | B3
68 | 0 | B4

These binders were tested against T14, Pex13, P80667 (assay: SPOT array). Settings: median of control spots 1341.

Row | SPOT intensity | Binder
69 | 0 | B1
70 | 3 | B2
71 | 10 | B3
72 | 1 | B4

What follows are binders tested against T15, Sla1-3, P32790 (assay: SPOT array). Settings: median of control spots 5475.

Row | SPOT intensity | Binder
73 | 6 | B1
74 | 24 | B2
75 | 28 | B3
76 | 0 | B4

These binders were tested against T16, Lsb1, P53281 (assay: SPOT array). Settings: median of control spots 388.

Row | SPOT intensity | Binder
77 | 0 | B1
78 | 1 | B2
79 | 8 | B3
80 | 1 | B4

What follows are binders tested against T17, Pin3, Q06449 (assay: SPOT array). Settings: median of control spots 2171.

Row | SPOT intensity | Binder
81 | 1 | B1
82 | 0 | B2
83 | 9 | B3
84 | 11 | B4

What follows are binders tested against T18, Abp1, P15891 (assay: SPOT array). Settings: median of control spots 935.

Row | SPOT intensity | Binder
85 | 64 | B1
86 | 22 | B2
87 | 12 | B3
88 | 8 | B4

These binders were tested against T19, Bzz1-2, P38822 (assay: SPOT array). Settings: median of control spots 4538.

Row | SPOT intensity | Binder
89 | 0 | B1
90 | 7 | B2
91 | 5 | B3
92 | 0 | B4

What follows are binders tested against T20, Fus1, P11710 (assay: SPOT array). Settings: median of control spots 1200.

Row | SPOT intensity | Binder
93 | 5 | B1
94 | 1 | B2
95 | 2 | B3
96 | 0 | B4

What follows are binders tested against GST (assay: SPOT array). Settings: median of control spots 978.

Row | SPOT intensity | Binder
97 | 2 | B1
98 | 0 | B2
99 | 1 | B3
100 | 2 | B4

Each binder was assayed against T21, Lsb3, P43603 (assay: SPOT array). Settings: median of control spots 406.

Row | SPOT intensity | Binder
101 | 0 | B1
102 | 0 | B2
103 | 0 | B3
104 | 1 | B4

Each binder was assayed against Rvs167, P39743 (assay: SPOT array). Settings: median of control spots 2707.
Rvs167, P39743, sequence (P39743 419-482): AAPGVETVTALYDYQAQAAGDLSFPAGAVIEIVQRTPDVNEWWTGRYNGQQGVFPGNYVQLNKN

Row | SPOT intensity | Binder
105 | 0 | B1
106 | 0 | B2
107 | 0 | B3
108 | 0 | B4
